Test results as given in patent US9296810 (Novartis, dated 2016).
Where a chain is given by its changes, count along the chain named. One block for each binder: values may come before it.

What was measured:
[1] = molecular target: Human Serum Albumin (HSA) (human, UniProt P02768 25-609); test: yeast display selection
hen egg white lysozyme = molecular target: T1, hen egg white lysozyme (hen, UniProt P00698 19-147, biotinylated (HEL-b); sites not stated); test: yeast display selection
T1 construct: also called lyzozyme; HEL-b (biotinylated)
T1 sequence (P00698 19-147 limits assumed): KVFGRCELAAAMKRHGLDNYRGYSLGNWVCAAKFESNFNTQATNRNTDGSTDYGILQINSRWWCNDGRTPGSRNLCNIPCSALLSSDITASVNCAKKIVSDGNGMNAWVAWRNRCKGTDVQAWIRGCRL

Sequence of Human Serum Albumin (HSA) (P02768 25-609 limits assumed): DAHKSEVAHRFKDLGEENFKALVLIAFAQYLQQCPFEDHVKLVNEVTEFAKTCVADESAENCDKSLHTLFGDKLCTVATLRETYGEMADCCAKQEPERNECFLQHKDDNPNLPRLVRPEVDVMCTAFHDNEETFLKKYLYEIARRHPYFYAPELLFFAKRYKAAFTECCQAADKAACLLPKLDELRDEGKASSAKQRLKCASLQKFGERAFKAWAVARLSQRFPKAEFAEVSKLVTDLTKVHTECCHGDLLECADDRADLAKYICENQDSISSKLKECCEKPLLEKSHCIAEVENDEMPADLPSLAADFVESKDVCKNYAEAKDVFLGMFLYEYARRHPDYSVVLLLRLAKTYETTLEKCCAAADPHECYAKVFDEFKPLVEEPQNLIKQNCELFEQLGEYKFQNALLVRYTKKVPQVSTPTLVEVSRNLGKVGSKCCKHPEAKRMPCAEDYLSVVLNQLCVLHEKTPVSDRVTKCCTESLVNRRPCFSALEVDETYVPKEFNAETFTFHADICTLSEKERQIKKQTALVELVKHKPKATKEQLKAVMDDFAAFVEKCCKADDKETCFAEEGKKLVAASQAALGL

- binding result [1]: binds
B1: SEQ ID NO 19 (designed binder)
chain: VSDVPRDLEVVAATPTSLLISWDAPAVTVRYYRITYGYGAANRRAHEFTVPGSKSTATISGLKRGRDYTITVYAVTGRGDSPASSKPISINYRHEL

- binding result [1]: binds
B2: SEQ ID NO 29 (designed binder)
chain: B1 chain with Y38D, G39R, A41K, R43T, A45I, H46K, H94L, L96G

- binding result [1]: binds
B3: SEQ ID NO 10 (designed binder)
chain: VSDVPRDLEVVAATPTSLLISWDAPAVTVRYYRITYGKTGHKSSDHEFTVPGSKSTATIGGMKGGVDYTITVYAVTGRGDSPASSKPISINYRFER

- binding result [1]: binds
B4: SEQ ID NO 9 (designed binder)
chain: VSDVPRDLEVVAATPTSLLISWDAPAVTVRYYRITYGQLDKKHHDAEFTVPGSKSTATITRLKRGRDYTITVYAVTGRGDSPASSKPISINYSPER

- binding result (hen egg white lysozyme): binds
B5: SEQ ID NO 70 (designed binder)
chain: VSDVPRDLEVVAATPTSLLISWDAPAVTVRYYRITYGESHQGLSYQEFTVPGSKSTATISPGSSSVDYTITVYAVTGRGESPASSKPISINYRYYR

- binding result [1]: binds
B6: SEQ ID NO 30 (designed binder)
chain: VSDVPRDLEVVAATPTSLLISWDAPAVTVRYYRITYGIPAKKHHTHEFTVPGSKSTATITGLKSGVDYTITVYAVTGRGDSPASSKPISINYRTET

- binding result [1]: binds
B7: SEQ ID NO 17 (designed binder)
chain: VSDVPRDLEVVAATPTSLLISWDAPAVTVRYYRITYGQRVGKTKVHEFTVPGSKSTATIRGLKRGKDYTITVYAVTGRGDSPASSKPISINYFPET

- binding result [1]: binds
B8: SEQ ID NO 22 (designed binder)
chain: VSDVPRDLEVVAATPTSLLISWDAPAVTVRYYRITYGKSHGHRQKHEFTVPGSKSTATISDYRQGGDYTITVYAVTGRGDSPASSKPISINYKGEL

- binding result [1]: binds
B9: SEQ ID NO 25 (designed binder)
chain: VSDVPRDLEVVAATPTSLLISWDAPAVTVRYYRITYGEKPRKYRSSEFTVPGSKSTATIRHSKHGKDYTITVYAVTGRGDSPASSKPISINYMREI

- binding result (hen egg white lysozyme): binds
B10: SEQ ID NO 73 (designed binder)
chain: VSDVPRDLEVVAATPTSLLISWDAPAVTVRYYRITYGERGYPGQEFTVPGSKSTATISEYSHSVDYTITVYAVTGRGESPASSKPISINYAQYQ

- binding result [1]: binds
B11: SEQ ID NO 11 (designed binder)
chain: VSDVPRDLEVVAATPTSLLISWDAPAVTVRYYRITYGKKDRASHLKEFTVPGSKSTATIGHIKGGYDYTITVYAVTGRGDSPASSKPISINYSGEP

- binding result (hen egg white lysozyme): binds
B12: SEQ ID NO 86 (designed binder)
chain: VSDVPRDLEVVAATPTSLLISWDAPAVTVRYYRITYGELPSQGRQEFTVPGSKSTATISYRRELVDYTITVYAVTGRGESPASSKPISINYGSSY

- binding result [1]: binds
B13: SEQ ID NO 31 (designed binder)
chain: VSDVPRDLEVVAATPTSLLISWDAPAVTVRYYRITYGEVHGHHTAHEFTVPGSKSTATIVRLKRGKDYTITVYAVTGRGDSPASSKPISINYCPER

- binding result (hen egg white lysozyme): binds
B14: SEQ ID NO 78 (designed binder)
chain: VSDVPRDLEVVAATPTSLLISWDAPAVTVRYYRITYGEQRARSRQEFTVPGSKSTATISEQRRRVDYTITVYAVTGRGESPASSKPISINYRALL

- binding result (hen egg white lysozyme): binds
B15: SEQ ID NO 83 (designed binder)
chain: VSDVPRDLEVVAATPTSLLISWDAPAVTVRYYRITYGEAHEYYYQEFTVPGSKSTATISRSSSSVDYTITVYAVTGRGESPASSKPISINYYGRY

- binding result [1]: binds
B16: SEQ ID NO 26 (designed binder)
chain: VSDVPRDLEVVAATPTSLLISWDAPAVTVRYYRITYGKTARKYHMQEFTVPGSKSTATISGIKRGTDYTITVYAVTGRGDSPASSKPISINYNSEH

- binding result (hen egg white lysozyme): binds
B17: SEQ ID NO 71 (designed binder)
chain: VSDVPRDLEVVAATPTSLLISWDAPAVTVRYYRITYGERGSGLGYQEFTVPGSKSTATISSRAYRVDYTITVYAVTGRGESPASSKPISINYALYE

- binding result [1]: binds
B18: SEQ ID NO 13 (designed binder)
chain: VSDVPRDLEVVAATPTSLLISWDAPAVTVRYYRITYGTSVDDRKLREFTVPGSKSTATISRLKRGRDYTITVYAVTGRGDSPASSKPISINYRAEN

- binding result [1]: binds
B19: SEQ ID NO 15 (designed binder)
chain: B18 chain with T38S, S39R, V40A, D41S, D42H, R46T, R61G, R64T, A94T, N96H

- binding result [1]: binds
B20: SEQ ID NO 14 (designed binder)
chain: VSDVPRDLEVVAATPTSLLISWDAPAVTVRYYRITYGVLSSTKHLKEFTVPGSKSTATISGLKLGRDYTITVYAVTGRGDSPASSKPISINYRMES

- binding result [1]: binds
B21: SEQ ID NO 23 (designed binder)
chain: B20 chain with L39M, S40G, S41D, H44K, L45V, S60E, G61R, L62I, M94K, S96H

- binding result [1]: binds
B22: SEQ ID NO 32 (designed binder)
chain: B20 chain with V38M, L39I, S41G, T42D, H44R, L45R, K46R, S60D, G61R, M94L

- binding result [1]: binds
B23: SEQ ID NO 21 (designed binder)
chain: VSDVPRDLEVVAATPTSLLISWDAPAVTVRYYRITYGDSRHHPRAHEFTVPGSKSTATITGCKRGHDYTITVYAVTGRGDSPASSKPISINYRYEH

- binding result [1]: binds
B24: SEQ ID NO 7 (designed binder)
chain: VSDVPRDLEVVAATPTSLLISWDAPAVTVRYYRITYGKTEGHRHSHEFTVPGSKSTATISGLKHGDDYTITVYAVTGRGDSPASSKPISINYRMEK

- binding result [1]: binds
B25: SEQ ID NO 24 (designed binder)
chain: VSDVPRDLEVVAATPTSLLISWDAPAVTVRYYRITYGEASKNHRQHEFTVPGSKSTATISRIKRGTDYTITVYAVTGRGDSPASSKPISINYSPES

- binding result [1]: binds
B26: SEQ ID NO 18 (designed binder)
chain: VSDVPRDLEVVAATPTSLLISWDAPAVTVRYYRITYGHTAKTRHHHEFTVPGSKSTATICKSRRGSDYTITVYAVTGRGDSPASSKPISINYQAET

- binding result (hen egg white lysozyme): binds
B27: SEQ ID NO 81 (designed binder)
chain: VSDVPRDLEVVAATPTSLLISWDAPAVTVRYYRITYGESHHYGPQEFTVPGSKSTATISLLGAHVDYTITVYAVTGRGESPASSKPISINYHGLY

- binding result [1]: binds
B28: SEQ ID NO 16 (designed binder)
chain: VSDVPRDLEVVAATPTSLLISWDAPAVTVRYYRITYGITGKEKSFVEFTVPGSKSTATIRDVKKGKDYTITVYAVTGRGDSPASSKPISINYRAET

- binding result [1]: binds
B29: SEQ ID NO 28 (designed binder)
chain: VSDVPRDLEVVAATPTSLLISWDAPAVTVRYYRITYGKVKAKAPLVEFTVPGSKSTATISSLKTGKDYTITVYAVTGRGDSPASSKPISINYRYEG

- binding result (hen egg white lysozyme): binds
B30: SEQ ID NO 72 (designed binder)
chain: VSDVPRDLEVVAATPTSLLISWDAPAVTVRYYRITYGERGGYSSQEFTVPGSKSTATISSRYRQVDYTITVYAVTGRGESPASSKPISINYQSYS

- binding result (hen egg white lysozyme): binds
B31: SEQ ID NO 76 (designed binder)
chain: VSDVPRDLEVVAATPTSLLISWDAPAVTVRYYRITYGESSGRYRQEFTVPGSKSTATISRYPHGVDYTITVYAVTGRGESPASSKPISINYAKNV

- binding result (hen egg white lysozyme): binds
B32: SEQ ID NO 84 (designed binder)
chain: VSDVPRDLEVVAATPTSLLISWDAPAVTVRYYRITYGEAGYSGGQEFTVPGSKSTATISERAEYVDYTITVYAVTGRGESPASSKPISINYERRY

- binding result (hen egg white lysozyme): binds
B33: SEQ ID NO 85 (designed binder)
chain: B32 chain with A39L, G40S, Y41R, G44S, E60G, R61S, A62Y, E63G, R93Q, R94S

- binding result (hen egg white lysozyme): binds
B34: SEQ ID NO 74 (designed binder)
chain: VSDVPRDLEVVAATPTSLLISWDAPAVTVRYYRITYGEYEPYGSQYQEFTVPGSKSTATISERQHAVDYTITVYAVTGRGESPASSKPISINYRRYE

- binding result [1]: binds
B35: SEQ ID NO 12 (designed binder)
chain: VSDVPRDLEVVAATPTSLLISWDAPAVTVRYYRITYGRTKGKSKLKEFTVPGSKSTATIPGLKQGEDYTITVYAVTGRGDSPASSKPISINYMFER

- binding result (hen egg white lysozyme): binds
B36: SEQ ID NO 77 (designed binder)
chain: VSDVPRDLEVVAATPTSLLISWDAPAVTVRYYRITYGEYRRRARQEFTVPGSKSTATISEHEPLVDYTITVYAVTGRGESPASSKPISINYYSYY

- binding result (hen egg white lysozyme): binds
B37: SEQ ID NO 75 (designed binder)
chain: VSDVPRDLEVVAATPTSLLISWDAPAVTVRYYRITYGEYGGSQAQEFTVPGSKSTATISREYGSVDYTITVYAVTGRGESPASSKPISINYALGE

- binding result [1]: binds
B38: SEQ ID NO 27 (designed binder)
chain: VSDVPRDLEVVAATPTSLLISWDAPAVTVRYYRITYGLTKRKSLISEFTVPGSKSTATIIGLKAGKDYTITVYAVTGRGDSPASSKPISINYKTEN

- binding result (hen egg white lysozyme): binds
B39: SEQ ID NO 79 (designed binder)
chain: VSDVPRDLEVVAATPTSLLISWDAPAVTVRYYRITYGERRRRYGQEFTVPGSKSTATISSRSRGVDYTITVYAVTGRGESPASSKPISINYLYPY
